Test results taken from US8530168B2, “Fusion protein comprising a Caspase domain and a nuclear hormone receptor binding domain and methods and uses thereof” (Helmholtz Zentrum Munich Deutsches Forschungszentrum fuer …, priority 2007, dated 2013).
Entries after “also recorded” stand apart in the source; their conditions may differ.

Tests used:
Assay type in all cases: cell-based, mouse
MEF5/N9 cells [1] = experiment: Transient cotransfection of ER(T2) fusion expression vectors with β-galactosidase reporter; β-galactosidase activity in lysates; conditions: no 4-OH-tamoxifen; transient transfection 50 or 100 ng vector; relative to Cre-ER(T2) without 4-OH-tamoxifen
MEF5/N9 cells [2] = experiment: as above; conditions: 10^−8 M 4-OH-tamoxifen, 48 h; for relative β-galactosidase activity in presence of 4-OH-tamoxifen compared to the negative control: relative to Cre-ER(T2) without 4-OH-tamoxifen
Experimental: The transformed mouse embryonic fibroblast cell line MEF5/N9 (Schwenk et al., Nucleic Acids Research, 26(6) 1427-1432 (1998)) was obtained from Michel Aguet (University of Zurich, Switzerland). The cells were grown in DMEM medium (Life Technologies) supplemented with 2 mM […] and 10% fetal calf serum at 37° C., 5% CO2 in humid atmosphere and passaged upon trypsinization. One day before transient transfection 4·10^4 cells were plated into a 24-well plate (Falcon). For the transient transfection of MEF5/N9 cells with plasmids, each well received into 500 μl of medium a total amount of 150 ng or 200 ng supercoiled plasmid DNA complexed before with the FuGene6 transfection reagent (Roche Diagnostics GmbH, Mannheim, Germany) according to the manufacturer's protocol. Each 150 ng or 200 ng DNA preparation (FIG. 2 sample 1 to 11) contained 100 ng of the β-Galactosidase expression vector pCMV-β-gal-pA (pCMVβ, Clontech, FIG. 1G, SEQ ID NO: 56), and 100 ng of the fusion ER(T2) expression vectors to be tested (FIG. 2 sample 3-7, 10-11) and the control plasmids (FIG. 2 sample 1-3), except for the samples with the plasmids pCAG-Casp9full-ER(T2)-bpA (FIG. 2 sample 8) and pCAG-Casp9trunc-ER(T2)-bpA (FIG. 2 sample 9), respectively, that received 50 ng of the test vector. For each sample to be tested four individual wells were transfected. Five hours after the addition of the DNA preparations each well received additional 500 μl of growth medium. The following day, the medium of two wells of each sample was replaced by fresh medium. The other two wells received medium containing 10^−8 M 4-hydroxy-tamoxifen (Sigma). 48 hours after induction with 4-OH-tamoxifen, the cells of each well were lysed with 200 μl lysate reagent supplemented with protease inhibitors (Roche Diagnostics GmbH). The lysates were centrifuged and 50 μl were used to determine the β-galactosidase activities using the β-galactosidase reporter gene assay (Roche Diagnostics GmbH) according to the manufacturer's protocol in a microplate luminometer (Berthold Detection Systems GmbH). The mean value and standard deviation of the samples was calculated from the β-galactosidase RLU values obtained from the two transfected wells of each sample. The relative β-galactosidase activity was obtained by comparison to the negative control (pCAG-Cre-ER(T2)-bpA) without 4-OH-tamoxifen.
To investigate the cell death effect of the different ER(T2) fusion constructs quantitatively, we performed transient cotransfections of the ER(T2) fusion protein expression vectors together with a fixed amount of a reporter plasmid coding for β-galactosidase in MEF5/N9 fibroblast cells. Transfected cells were treated 12 hours after transfection with 4-OH-tamoxifen at a concentration of 10^−8 M. Following 48 hours of 4-OH-tamoxifen induction, the cells from the various samples were lysed and the activity of β-galactosidase in the lysates was determined by a chemiluminescence assay and expressed in “Relative Light Units” (RLU) (FIG. 2). As positive controls for 4-OH-tamoxifen-inducible cell death, we prepared samples transfected with the constructs pCAG-HAFas-ER(T2) or pCAG-MFas-ER(T2) together with the reporter plasmid and treatment with 4-OH-tamoxifen. As negative control for this assay served samples which received the reporter plasmid together with the expression vector pCAG-Cre-ER(T2) and that were treated with 4-OH-tamoxifen.
To determine the relative activity of the tested ER(T2) fusion constructs inducing apoptosis in the presence of 4-OH-tamoxifen, the RLU values of β-galactosidase activity were divided individually for each sample by the RLU value obtained from the sample which received the plasmid pCAG-Cre-ER(T2) but was not treated with 4-OH-tamoxifen (defined as negative control). The relative activity of the tested Caspase- or bax-ER(T2) fusion proteins was then compared to the negative control for 4-OH-tamoxifen-dependent cell death defined as an activity of 1.

MEF5/N9 cells [3] = experiment: Visible phenotypic changes / viability of stably transfected MEF5/N9 clones on 4-OH-tamoxifen treatment; conditions: 10^−8 M 4-OH-tamoxifen, 24 h
Experimental: (§1) To generate stably transfected MEF5/N9 cells, 2·10^6 cells were coelectroporated with 32 μg ER(T2) fusion plasmid DNA linearised with ScaI and 8 μg pPgk-hygro-pA plasmid DNA linearised with XhoI and plated into two 96-well plates. The cells were grown in DMEM medium (Invitrogen) supplemented with 2 mM Glutamine and 10% fetal calf serum at 37° C., 5% CO2 in humid atmosphere, and passaged upon trypsinization. Two days after transfection the medium was supplemented with 250 U/ml of hygromycin (Calbiochem) for the selection of stable integrants. Upon the growth of resistant colonies these were individually expanded in the presence of hygromycin.
To examine 4-OH-tamoxifen-dependent cell death, 1·10^5 MEF5/N9 cells expressing ER(T2) fusion proteins were plated into each well of a six-well plate. The following day, for each sample the medium in two of four individual wells were replaced with medium supplemented with 10^−8 M 4-hydroxy-tamoxifen. 24 hours after induction with 4-OH-tamoxifen, cells were photographed through a Leica DMI6000B fluorescence microscope with phase contrast either at 10-fold or 20-fold magnification.
Since the responsiveness of the clones, transfected with the same construct, to 4-OH-tamoxifen differed only slightly from each other, only the results obtained from one clone for each construct are shown in the figure.

MEF5/N9 cells [4] = experiment: MTT cytotoxicity assay of stably transfected MEF5/N9 clones; conditions: 10^−8 M 4-OH-tamoxifen, 48 h
Experimental: as §1
To quantify 4-OH-tamoxifen-inducible cell death, we applied the colorimetric MTT assay (Mossman, J. Immunol. Methods, 65, 55 (1983)) allowing the quantification of cell survival. Cells (4·10^3) were plated on 96-well plates. The assay was carried out in three replicas for each sample treated with and without 4-OH-tamoxifen. After 12 h, medium was replaced either with fresh medium or with medium supplemented with 10^−8 M 4-OH-tamoxifen. Following 48 h of 4-OH-tamoxifen treatment, sterile filtered MTT reagent in PBS (Sigma) was added at the concentration of 0.5 mg/ml. Incubation occurred for 4 hours at 37° C. With ongoing reaction time, dark violet MTT formazan crystals appeared on the bottom of the wells containing living cells. The crystals were dissolved in 150 μl 0.04 N HCl/isopropanol to give a homogeneous blue solution suitable for absorbance measurement at a wavelength of 570 nm on the Synergy™ HT Multi-Detection Microplate Reader (BioTek).

Molecule	basal toxicity: relative β-galactosidase activity compared to the negative control in absence of 4-OH-tamoxifen (MEF5/N9 cells [1])	4-OH-tamoxifen-dependent activity / toxicity in transient transfection (in words) (MEF5/N9 cells [2])	4-OH-tamoxifen-dependent cell death, phenotype of stable clones (MEF5/N9 cells [3])	4-OH-tamoxifen-dependent cell death, phenotype of stable clones (MEF5/N9 cells [3]; listed as ERBax)	cell viability in the presence of 4-OH-tamoxifen (MTT) (MEF5/N9 cells [4])	4-OH-tamoxifen-dependent cell death, phenotype of stable clones (MEF5/N9 cells [3]; listed as Casp3ER)	relative β-galactosidase activity in presence of 4-OH-tamoxifen compared to the negative control (MEF5/N9 cells [2])	4-OH-tamoxifen-dependent cell death, phenotype of stable clones (MEF5/N9 cells [3]; listed as Casp9truncER)
Bax-ER(T2): N-terminal fusion of full length murine Bax to ER(T2) ligand binding domain, SEQ ID NO: 48	100%	neither the N-terminal nor the C-terminal fusion of Bax to ER(T2) displayed any activity	–	–	–	–	–	–
ER(T2)-Bax: spaceless C-terminal fusion of murine Bax to ER(T2), SEQ ID NO: 55; used as negative control in stable clones	84%	no tamoxifen-dependent activity; also recorded: neither the N-terminal nor the C-terminal fusion of Bax to ER(T2) displayed any activity	did not respond to 4-OH-tamoxifen	not affected by the treatment with 4-OH-tamoxifen	not affected by treatment with 4-OH-tamoxifen	–	–	–
Casp3-ER(T2): full length murine Caspase-3 fused to ER(T2) ligand binding domain, SEQ ID NO: 37 (protein, fusion gene Casp3-ER(T2)) MENNKTSVDSKSINNFEVKTIHGSKSVDSGIYLDSSYKMDYPEMGICIIINNKNFHKSTGMSSRSGTDVDAANLRETFMGLKYQVRNKNDLTREDILELMDSVSKEDHSKRSSFVCVILSHGDEGVIYGTNGPVELKKLTSFFRGDYCRSLTGKPKLFIIQACRGTELDCGIETDSGTDEEMACQKIPVEADFLYAYSTAPGYYSWRNSKDGSWFIQSLCSMLKLYAHKLEFMHILTRVNRKVATEFESFSLDSTFHAKKQIPCIVSMLTKELYFYHLEPSAGDMRAANLWPSPLMIKRSKKNSLALSLTADQMVSALLDAEPPILYSEYDPTRPFSEASMMGLLTNLADRELVHMINWAKRVPGFVDLTLHDQVHLLECAWLEILMIGLVWRSMEHPVKLLFAPNLLLDRNQGKCVEGMVEIFDMLLATSSRFRMMNLQGEEFVCLKSIILLNSGVYTFLSSTLKSLEEKDHIHRVLDKITDTLIHLMAKAGLTLQQQHQRLAQLLLILSHIRHMSNKGMEHLYSMKCKNVVPLYDLLLEAADAHRLHAPTSRGGASVEETDQSHLATAGSTSSHSLQKYYITGEAEGFPATA	52%	low compared to the Caspase 8 or Caspase 9 ER(T2) fusion variants	neither the two Fas-ER(T2) variants (see FIG. 4 H2, I2) nor Casp3-ER(T2) (FIG. 4 E2) were able to induce apoptosis in the presence of 4-OH-tamoxifen	–	not affected by treatment with 4-OH-tamoxifen	not affected by the treatment with 4-OH-tamoxifen	28%	–
Casp9trunc-ER(T2): truncated murine Caspase-9 without CARD domain fused to ER(T2) ligand binding domain, SEQ ID NO: 32 (protein, fusion protein Casp9trunc-ER(T2)) MGRQAAKQDPEAVKPLDHLVPVVLGPMGLTAKEQRVVKLDPSQPAVGNLTPVVLGPEELWPARLKPEVLRPETPRPVDIGSGGAHDVCVPGKIRGHADMAYTLDSDPCGHCLIINNVNFCPSSGLGTRTGSNLDRDKLEHRFRWLRFMVEVKNDLTAKKMVTALMEMAHRNHRALDCFVVVILSHGCQASHLQFPGAVYGTDGCSVSIEKIVNIFNGSGCPSLGGKPKLFFIQACGGEQKDHGFEVACTSSQGRTLDSDSEPDAVPYQEGPRPLDQLDAVSSLPTPSDILVSYSTFPGFVSWRDKKSGSWYIETLDGILEQWARSEDLQSLLLRVANAVSAKGTYKQIPGCFNFLRKKLFFKTSVEPSAGDMRAANLWPSPLMIKRSKKNSLALSLTADQMVSALLDAEPPILYSEYDPTRPFSEASMMGLLTNLADRELVHMINWAKRVPGFVDLTLHDQVHLLECAWLEILMIGLVWRSMEHPVKLLFAPNLLLDRNQGKCVEGMVEIFDMLLATSSRFRMMNLQGEEFVCLKSIILLNSGVYTFLSSTLKSLEEKDHIHRVLDKITDTLIHLMAKAGLTLQQQHQRLAQLLLILSHIRHMSNKGMEHLYSMKCKNVVPLYDLLLEAADAHRLHAPTSRGGASVEETDQSHLATAGSTSSHSLQKYYITGEAEGFPATA	70%	–	weaker susceptibility to 4-OH-tamoxifen	–	–	–	22%	substantial cell death
Casp3-ED4ER(T2): full length murine Caspase-3 fused directly to N-terminal shortened ER(T2) domain, SEQ ID NO: 41 (protein, fusion gene Casp3-ED4ER(T2)) MENNKTSVDSKSINNFEVKTIHGSKSVDSGIYLDSSYKMDYPEMGICIIINNKNFHKSTGMSSRSGTDVDAANLRETFMGLKYQVRNKNDLTREDILELMDSVSKEDHSKRSSFVCVILSHGDEGVIYGTNGPVELKKLTSFFRGDYCRSLTGKPKLFIIQACRGTELDCGIETDSGTDEEMACQKIPVEADFLYAYSTAPGYYSWRNSKDGSWFIQSLCSMLKLYAHKLEFMHILTRVNRKVATEFESFSLDSTFHAKKQIPCIVSMLTKELYFYHLESLALSLTADQMVSALLDAEPPILYSEYDPTRPFSEASMMGLLTNLADRELVHMINWAKRVPGFVDLTLHDQVHLLECAWLEILMIGLVWRSMEHPVKLLFAPNLLLDRNQGKCVEGMVEIFDMLLATSSRFRMMNLQGEEFVCLKSIILLNSGVYTFLSSTLKSLEEKDHIHRVLDKITDTLIHLMAKAGLTLQQQHQRLAQLLLILSHIRHMSNKGMEHLYSMKCKNVVPLYDLLLEAADAHRLHAPTSRGGASVEETDQSHLATAGSTSSHSLQKYYITGEAEGFPATA	52%	could not be regulated in presence of 4-OH-tamoxifen	–	–	–	–	–	–
